Data on 6 molecules can be found in patent US20220204643A1 (published 2022).

Assay [1] addresses T1, PNMA family member 5, transcript variant 2 (human, UniProt Q96PV4 1-448).
T1 construct: HuProt array protein, full-length recombinant from yeast; also called PNMA5

The target in assay [2] is T2, phospholipase C delta 1, transcript variant 2 (human, UniProt P51178 1-756).
T2 construct: HuProt array protein, full-length recombinant from yeast; also called PLCD1
T2 sequence: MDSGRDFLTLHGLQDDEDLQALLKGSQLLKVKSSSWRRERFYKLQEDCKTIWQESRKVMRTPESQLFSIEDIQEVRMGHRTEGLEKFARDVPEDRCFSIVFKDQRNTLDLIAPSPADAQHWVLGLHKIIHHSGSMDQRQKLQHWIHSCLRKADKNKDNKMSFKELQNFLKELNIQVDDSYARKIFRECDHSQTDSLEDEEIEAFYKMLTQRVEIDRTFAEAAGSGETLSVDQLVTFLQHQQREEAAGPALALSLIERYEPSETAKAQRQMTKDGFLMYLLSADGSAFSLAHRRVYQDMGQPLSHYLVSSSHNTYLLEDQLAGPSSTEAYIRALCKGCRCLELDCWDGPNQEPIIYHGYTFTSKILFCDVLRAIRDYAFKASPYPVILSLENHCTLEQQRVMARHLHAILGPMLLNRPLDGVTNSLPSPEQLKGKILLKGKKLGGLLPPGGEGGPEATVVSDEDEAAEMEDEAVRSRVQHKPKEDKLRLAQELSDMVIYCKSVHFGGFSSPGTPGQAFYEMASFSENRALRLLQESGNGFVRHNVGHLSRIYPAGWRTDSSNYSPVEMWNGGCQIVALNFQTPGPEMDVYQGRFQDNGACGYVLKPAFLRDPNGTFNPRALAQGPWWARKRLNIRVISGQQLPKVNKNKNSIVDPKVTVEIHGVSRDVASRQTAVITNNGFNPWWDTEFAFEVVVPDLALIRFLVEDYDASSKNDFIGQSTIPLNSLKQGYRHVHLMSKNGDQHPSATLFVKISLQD

Assay [3] addresses T3, zinc finger protein 326, transcript variant 1 (human, UniProt Q5BKZ1 1-582).
T3 construct: HuProt array protein, full-length recombinant from yeast; also called ZNF326
T3 sequence: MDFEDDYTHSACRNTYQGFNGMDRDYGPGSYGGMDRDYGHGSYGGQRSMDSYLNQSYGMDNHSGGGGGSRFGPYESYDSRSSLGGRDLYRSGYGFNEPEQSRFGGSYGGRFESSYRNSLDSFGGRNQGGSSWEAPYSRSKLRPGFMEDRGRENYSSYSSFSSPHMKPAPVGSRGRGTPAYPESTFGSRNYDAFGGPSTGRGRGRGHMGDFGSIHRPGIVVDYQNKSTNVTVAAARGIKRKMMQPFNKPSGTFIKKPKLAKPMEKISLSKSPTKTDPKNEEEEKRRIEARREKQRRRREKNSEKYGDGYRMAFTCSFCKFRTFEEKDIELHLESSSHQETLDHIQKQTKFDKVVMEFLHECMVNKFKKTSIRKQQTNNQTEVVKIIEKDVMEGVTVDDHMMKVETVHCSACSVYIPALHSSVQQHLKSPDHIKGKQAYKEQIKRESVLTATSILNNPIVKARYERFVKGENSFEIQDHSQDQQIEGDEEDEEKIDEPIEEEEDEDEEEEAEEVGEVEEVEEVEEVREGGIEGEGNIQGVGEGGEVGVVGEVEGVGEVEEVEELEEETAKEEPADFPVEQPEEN

The target of assay [4] is T4, X-linked inhibitor of apoptosis, transcript variant 2 (human, UniProt P98170 1-497).
T4 construct: HuProt array protein, full-length recombinant from yeast; also called XIAP
T4 sequence (P98170 whole entry, change not shown): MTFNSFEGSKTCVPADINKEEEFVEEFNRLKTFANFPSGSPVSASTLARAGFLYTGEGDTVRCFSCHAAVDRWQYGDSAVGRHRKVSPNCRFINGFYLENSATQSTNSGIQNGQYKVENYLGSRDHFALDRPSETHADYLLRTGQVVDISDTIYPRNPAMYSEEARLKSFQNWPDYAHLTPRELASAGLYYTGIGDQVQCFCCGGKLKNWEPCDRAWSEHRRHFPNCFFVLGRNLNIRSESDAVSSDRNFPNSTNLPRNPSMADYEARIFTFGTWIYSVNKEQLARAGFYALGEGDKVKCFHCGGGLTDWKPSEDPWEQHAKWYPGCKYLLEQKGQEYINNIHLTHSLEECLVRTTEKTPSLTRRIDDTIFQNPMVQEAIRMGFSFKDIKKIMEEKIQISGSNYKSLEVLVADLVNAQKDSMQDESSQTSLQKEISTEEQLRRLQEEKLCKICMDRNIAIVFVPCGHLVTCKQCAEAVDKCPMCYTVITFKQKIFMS

Assay [5] concerns the target T5, Egf like and emi domain containing 1, pseudogene (human, UniProt Q0D2K5 1-195).
T5 construct: HuProt array protein; pseudogene product; also called EGFEM1P
T5 sequence: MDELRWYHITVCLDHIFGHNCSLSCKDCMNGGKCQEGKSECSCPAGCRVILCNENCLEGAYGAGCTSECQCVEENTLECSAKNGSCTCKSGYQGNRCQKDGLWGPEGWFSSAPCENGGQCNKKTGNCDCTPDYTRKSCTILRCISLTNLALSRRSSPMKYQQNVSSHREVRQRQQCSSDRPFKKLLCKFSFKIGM

Assay [6] has as its target T6, charged multivesicular body protein 4B (human, UniProt Q9H444 2-224).
T6 construct: HuProt array protein, full-length recombinant from yeast; also called CHMP4B
T6 sequence: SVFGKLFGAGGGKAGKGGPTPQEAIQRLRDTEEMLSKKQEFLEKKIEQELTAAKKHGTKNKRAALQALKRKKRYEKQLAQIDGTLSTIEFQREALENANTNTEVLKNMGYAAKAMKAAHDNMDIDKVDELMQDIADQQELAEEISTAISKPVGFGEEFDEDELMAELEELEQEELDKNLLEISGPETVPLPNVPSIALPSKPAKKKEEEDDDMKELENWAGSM

Assay [7] concerns the target T7, endosome associated trafficking regulator 1, transcript variant 2 (human, UniProt Q96C92 59-435).
T7 construct: HuProt array protein, full-length recombinant from yeast; also called SDCCAG3
T7 chain: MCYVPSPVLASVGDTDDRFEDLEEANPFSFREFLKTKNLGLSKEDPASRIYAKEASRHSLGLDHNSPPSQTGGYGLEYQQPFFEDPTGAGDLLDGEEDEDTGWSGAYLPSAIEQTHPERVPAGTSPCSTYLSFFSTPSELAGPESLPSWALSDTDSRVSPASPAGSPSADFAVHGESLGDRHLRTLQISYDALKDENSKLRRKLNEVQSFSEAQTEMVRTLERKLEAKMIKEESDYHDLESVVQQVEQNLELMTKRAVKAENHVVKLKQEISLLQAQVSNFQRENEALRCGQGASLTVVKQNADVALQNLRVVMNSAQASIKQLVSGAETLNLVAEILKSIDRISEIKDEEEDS

The target of the next assay is T8, LN608403.1_frag (human).
T8 construct: HuProt array protein; labelled _frag
T8 chain: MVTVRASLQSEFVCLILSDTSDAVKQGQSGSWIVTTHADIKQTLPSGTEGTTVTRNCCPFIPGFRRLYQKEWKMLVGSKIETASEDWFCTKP

For assay [8], the target named is T9, JPX transcript, XIST activator (human).
T9 construct: HuProt array protein; labelled _frag
T9 chain: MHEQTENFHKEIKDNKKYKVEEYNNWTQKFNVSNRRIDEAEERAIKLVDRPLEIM

The target of assay [9] is T10, geminin DNA replication inhibitor, transcript variant 1 (human, UniProt O75496 1-209).
T10 construct: HuProt array protein, full-length recombinant from yeast; also called GMNN
T10 sequence: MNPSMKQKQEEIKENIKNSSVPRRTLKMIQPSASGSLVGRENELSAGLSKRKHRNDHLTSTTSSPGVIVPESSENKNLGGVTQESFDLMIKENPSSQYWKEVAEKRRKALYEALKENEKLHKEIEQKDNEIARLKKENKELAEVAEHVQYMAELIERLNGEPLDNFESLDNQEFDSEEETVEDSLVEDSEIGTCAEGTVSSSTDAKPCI

Assay [10] addresses T11, syntaxin 1A, transcript variant 1 (human, UniProt Q16623 1-288).
T11 construct: HuProt array protein, full-length recombinant from yeast; also called STX1A

A further assay addresses T12, DEAD-box helicase 18 (human, UniProt Q9NVP1 1-670).
T12 construct: HuProt array protein, full-length recombinant from yeast; also called DDX18
T12 sequence: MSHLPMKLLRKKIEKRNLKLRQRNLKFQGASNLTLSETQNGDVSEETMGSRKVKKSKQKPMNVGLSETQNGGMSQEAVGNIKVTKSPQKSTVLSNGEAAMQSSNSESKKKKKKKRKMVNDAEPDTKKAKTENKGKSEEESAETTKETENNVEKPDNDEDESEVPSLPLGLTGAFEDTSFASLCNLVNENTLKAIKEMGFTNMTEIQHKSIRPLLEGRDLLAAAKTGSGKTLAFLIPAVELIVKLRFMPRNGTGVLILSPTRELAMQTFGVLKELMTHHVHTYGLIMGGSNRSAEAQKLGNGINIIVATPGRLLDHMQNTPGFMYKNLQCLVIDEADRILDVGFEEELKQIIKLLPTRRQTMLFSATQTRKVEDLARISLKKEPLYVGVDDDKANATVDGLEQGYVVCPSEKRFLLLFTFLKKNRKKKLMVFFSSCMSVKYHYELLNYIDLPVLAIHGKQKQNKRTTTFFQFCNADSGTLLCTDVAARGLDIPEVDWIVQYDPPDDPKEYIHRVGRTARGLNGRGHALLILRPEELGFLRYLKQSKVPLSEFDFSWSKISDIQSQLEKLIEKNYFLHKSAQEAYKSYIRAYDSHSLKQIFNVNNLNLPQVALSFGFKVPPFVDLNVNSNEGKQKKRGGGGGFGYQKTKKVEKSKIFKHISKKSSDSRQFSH

T11 sequence (Q16623 whole entry, change not shown): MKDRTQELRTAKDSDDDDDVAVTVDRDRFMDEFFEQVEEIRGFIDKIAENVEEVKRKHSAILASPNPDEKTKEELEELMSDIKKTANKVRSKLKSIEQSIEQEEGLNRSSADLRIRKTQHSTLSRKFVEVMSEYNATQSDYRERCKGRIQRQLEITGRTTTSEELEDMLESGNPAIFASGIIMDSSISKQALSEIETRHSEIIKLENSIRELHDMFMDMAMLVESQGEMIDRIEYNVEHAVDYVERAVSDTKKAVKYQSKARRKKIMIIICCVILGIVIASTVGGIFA
T1 sequence (Q96PV4 other isoform, or with tags, fused parts or gaps mutant limits assumed): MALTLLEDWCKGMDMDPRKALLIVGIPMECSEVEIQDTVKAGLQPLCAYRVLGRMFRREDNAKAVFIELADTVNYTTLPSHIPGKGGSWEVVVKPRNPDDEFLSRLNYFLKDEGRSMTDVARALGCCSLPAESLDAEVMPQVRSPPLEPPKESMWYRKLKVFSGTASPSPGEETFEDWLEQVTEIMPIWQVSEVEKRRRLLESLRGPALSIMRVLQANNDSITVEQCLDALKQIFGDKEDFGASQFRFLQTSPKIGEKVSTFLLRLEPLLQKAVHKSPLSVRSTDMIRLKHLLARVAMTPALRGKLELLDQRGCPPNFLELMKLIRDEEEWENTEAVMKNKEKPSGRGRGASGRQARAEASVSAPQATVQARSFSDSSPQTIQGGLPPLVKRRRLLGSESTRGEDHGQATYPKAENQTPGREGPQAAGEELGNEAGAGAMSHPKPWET

B1: TBRE1039 (antibody, V domains shown)
VH: PVQLVQSGAEVKKPGSSVKVSCKASGGTFSSYAISWVRQAPGQGLEWMGGIIPIFGTANYAQKFQGRVTITADESTSTAYMELSSLRSEDTAVYYCARENWNSAGTTEWFDPWGQGTLVTVSS
VL: PYVLTQPPSVSVAPGKTARITCGGNNIGSKSVHWYQQKPGQAPVLVIYYDSDRPSGIPERFSGSNSGNTATLTISRVEAGDEADYYCQVWDSSSDHYVVFGGGTKLTVLG
notes: detected with anti-human IgG Fc
As to B1, the binding result in [1], in assay [2] and in [3] was “binds” each time.

B2: TBRE1032 (antibody, V domains shown)
VH: EVQLVESGGGLVQPGGSLRLSCAASGFTFSSYDFHWVRQPTGKGLEWVSAIGTAGDTLYLDSVKGRFTISRENAKNSLYLQMNSLRAGDTAVYYCARVNWNSDTFDSWGQGTLVTVSS
VL: VSSELTQDPAVSVALGQTVRITCQGDSLRRYYASWYQQKAGQAPILVIYGENNRPSGIPDRFSGSGSGNTASLTITGAQAEDEADYYCDSRDSSGNLVVFGGGTKLTVL
notes: as for B1
As for B2, the binding result in assay [4] is “binds”.

B3: TBRE1036 (antibody, V domains shown)
VH: QVQLVESGGGVVQPGRSLRLSCAASGFTFSSYAMHWVRQAPGKGLEWVAVISYDGSNKYYADSLKGRFTISRDNSKDTLYLQVNSLRPEDTAVYYCARVNIAAAGTLDYWGQGTLVTVSS
VL: EIVLTQSPGTLSLSPGERATLSCRASQSVSSRYLAWYQQKPGQAPRLLIHGASSRATGIPDRFSGSGSGTDFTLTISRLEPEDFAVYYCQQYGSAWTFGQGTKVEIKR
notes: as for B1
In the case of B3, the binding result in [5] is recorded as “binds”.

B4: TBRE1034 (antibody, V domains shown)
VH: QVQLVESGGGLVEPGGSLRLSCAASGFTFSDYYMSWIRQAPGKRLEWISHMSSGGNRRHYADSVRGRFTISRDNAKNSLYLQMNSMRADDTAVYYCARDKRSGMTSDRRIDYWGQGTRVTVSS
VL: DIQMTQSPSSLSASVGDRITITCRASQSVGTYLSWFQQKPGKAPKLLIYAASSLQSGVPSRFSGSGSGTDFTLTISSLQPEDFATYFCQQSYSVPPWTFGQGTKVEIKR
notes: as for B1
As to B4, the binding result in assay [6] and in assay [7] was “binds” in each case.

B5: TBRE1045 (antibody, V domains shown)
VH: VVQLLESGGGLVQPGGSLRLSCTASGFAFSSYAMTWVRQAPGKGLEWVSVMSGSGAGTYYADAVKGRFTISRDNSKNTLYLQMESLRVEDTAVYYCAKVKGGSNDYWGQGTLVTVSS
VL: PYVLTQPPSVSVAPGQTARITCGGNNIGSKSVHWYQQKPGQAPVMVVYADRERPSGIPERLSGSNFGNTATLTISRVEAGDEADYYCQVWDSNNDHREVFGGGTKLTVLG
notes: as for B1
Turning to B5, the binding result (in the assay with LN608403.1_frag; in [8]) was “binds” in each case.

B6: TBRE1027 (antibody, V domains shown)
VH: EVQLLESGGGLVQPGGSLRLSCAASGFTFSSYAMSWVRQAPGKGLEWVSTISGSGHSTYYADSVKGRFTISRDNSKNTLYLQMNSLRAEDTAVYYCAKSTLGGGFDFWGQGTLVTVSS
VL: DIQMTQSPFSLSASVGDRVTITCRASQSISSYLNWYQQKPGKAPKLLIYAASSLQSGVPSRFSGSGSGTDFTLTISSLQPEDFATYYCHQSYSTSLTFGGGTKVEIKR
notes: as for B1
For the molecule B6, the binding result (in assay [9]; in assay [10]; with DEAD-box helicase 18) was “binds” in each case.
